Test results reported in patent US20130315910A1 (Xencor, published 2013).

T1: human FcγRIIb receptor protein (R&D Systems) (human, UniProt P31994 46-217)
T1 construct: Bought protein injected over captured antibody in Biacore; also called CD32b
T1 sequence (looked up): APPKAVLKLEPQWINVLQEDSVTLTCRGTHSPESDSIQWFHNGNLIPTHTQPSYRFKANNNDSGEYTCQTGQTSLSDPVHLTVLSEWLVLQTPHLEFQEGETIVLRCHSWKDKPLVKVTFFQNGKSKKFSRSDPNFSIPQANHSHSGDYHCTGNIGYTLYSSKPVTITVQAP

T2: human FcγRIIa (131H), His- and GST-tagged (human, UniProt P12318 34-217)
T2 construct: also called H131 FcγRIIa; HIIa; not shown: 6xHis and GST tags of the pTT5 vector
T2 sequence (looked up): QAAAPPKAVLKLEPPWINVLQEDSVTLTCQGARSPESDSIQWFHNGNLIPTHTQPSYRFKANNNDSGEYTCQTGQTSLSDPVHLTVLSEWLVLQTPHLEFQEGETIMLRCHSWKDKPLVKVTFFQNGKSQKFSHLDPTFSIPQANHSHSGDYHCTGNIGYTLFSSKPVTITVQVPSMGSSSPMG

T3: human FcγRIIa (131R), His- and GST-tagged (human, UniProt P12318 34-217)
T3 construct: Expressed in HEK293T cells, purified by nickel chromatography; also called R131 FcγRIIa; not shown: 6xHis and GST tags of the pTT5 vector
T3 sequence (looked up): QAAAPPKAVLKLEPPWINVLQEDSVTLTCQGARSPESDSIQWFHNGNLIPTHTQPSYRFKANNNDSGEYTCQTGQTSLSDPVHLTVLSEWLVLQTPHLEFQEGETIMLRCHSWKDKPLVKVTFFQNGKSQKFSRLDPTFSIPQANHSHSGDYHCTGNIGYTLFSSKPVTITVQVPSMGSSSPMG

T4: human FcγRIIb on cells (transfected HEK293T cells; primary human B cells) (human, UniProt P31994 43-310)
T4 construct: whole, on cells; also called CD32b
T4 sequence (looked up): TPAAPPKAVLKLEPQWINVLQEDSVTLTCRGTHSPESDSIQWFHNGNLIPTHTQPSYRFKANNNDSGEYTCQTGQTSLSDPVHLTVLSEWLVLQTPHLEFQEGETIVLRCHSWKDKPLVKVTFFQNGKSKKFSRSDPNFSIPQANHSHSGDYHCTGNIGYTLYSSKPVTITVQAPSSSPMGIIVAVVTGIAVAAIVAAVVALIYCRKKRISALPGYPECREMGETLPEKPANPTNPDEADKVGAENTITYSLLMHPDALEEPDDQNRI


Tests used:
[1] = target: T1, human FcγRIIb receptor protein (R&D …); assay: SPR
[2] = target: T5, human FcγRIIIa (158F), His- and GST-tagged (human, UniProt P08637 17-208); assay: SPR
T5 construct: also called F158 FcγRIIIa; not shown: 6xHis and GST tags of the pTT5 vector

[3] = target: T2, human FcγRIIa (131H), His- and …; assay: SPR
[4] = target: T3, human FcγRIIa (131R), His- and …; assay: SPR
[5] = target: T6, human FcγRI receptor protein (R&D Systems) (human, UniProt P12314 16-288); assay: SPR
T6 construct: also called soluble FcγRI; solFcγRI

[6] = target: T7, human FcγRIIIa (158V), His- and GST-tagged (human, UniProt P08637 17-208); assay: SPR
T7 construct: also called V158 FcγRIIIa; VIIIa; not shown: 6xHis and GST tags of the pTT5 vector

[7] = target: T1, human FcγRIIb receptor protein (R&D …); assay: Biacore SPR, antibody captured on protein A/G chip, FcγR injected, 1:1 Langmuir fit
Procedure: Variants were screened for receptor affinity using Biacore™ technology, also referred to as Biacore herein, a surface plasmon resonance (SPR) based technology for studying biomolecular interactions in real time. SPR measurements were performed using a Biacore 3000 instrument (Biacore, Piscataway, N.J.). A protein A/G (Pierce Biotechnology) CM5 biosensor chip (Biacore) was generated using a standard primary amine coupling protocol. All measurements were performed using HBS-EP buffer (10 mM HEPES pH 7.4, 0.15 M NaCl, 3 mM EDTA, 0.005% vol/vol surfactant P20, Biacore). Antibodies at 20 nM or 50 nM in HBS-EP buffer were immobilized on the protein A/G surface and FcγRs were injected. After each cycle, the surface was regenerated by injecting glycine buffer (10 mM, pH 1.5). Data were processed by zeroing time and response before the injection of FcγR and by subtracting appropriate nonspecific signals (response of reference channel and injection of running buffer). Kinetic analyses were performed by global fitting of binding data with a 1:1 Langmuir binding model using BIAevaluation software (Biacore).

[8] = target: T4, human FcγRIIb on cells (transfected …); assay: flow cytometry on FcγRIIb-transfected 293T cells [top right panel]
Procedure: (§1) In order to validate the Biacore data and evaluate receptor binding of the variants on the cell surface, binding of select antibodies to cells expressing FcγRIIb was measured. […] HEK293T cells in DMEM with 10% FBS were transfected with human FcγRIIb cDNA in pCMV6 expression vector (Origene Technologies, Rockville, Md.), cultured for 3 days, harvested, washed twice in PBS, resuspended in PBS with 0.1% BSA (PBS/BSA), and aliquoted at 2×10^5 cells per well into 96-well microtiter plates. Fc variant antibodies were serially diluted in PBS/BSA then added to the cells and incubated with mixing for 1 h at room temperature. After extensive washing with PBS/BSA, phycoerythrin (PE)-labeled anti-human-Fab-specific goat F(ab′)2 fragment was added for detection. Cells were incubated for 30 min at room temperature, washed, and resuspended in PBS/BSA. Binding was evaluated using a FACSCanto II flow cytometer (BD Biosciences, San Jose, Calif.), and the mean fluorescence intensity (MFI) was plotted as a function of antibody concentration using Graph Pad Prism software (GraphPad Software, San Diego, Calif.) from which half-maximal binding (EC50) values were determined by sigmoidal dose response modeling.

[9] = target: T4, human FcγRIIb on cells (transfected …); assay: flow cytometry on FcγRIIb-transfected 293T cells [middle left panel]
Procedure: as §1

[10] = target: T4, human FcγRIIb on cells (transfected …); assay: flow cytometry on FcγRIIb-transfected 293T cells [middle right panel]
Procedure: as §1

[11] = target: T4, human FcγRIIb on cells (transfected …); assay: flow cytometry on FcγRIIb-transfected 293T cells [top left panel]
Procedure: as §1

[12] = target: T4, human FcγRIIb on cells (transfected …); assay: flow cytometry on FcγRIIb-transfected 293T cells [bottom left panel]
Procedure: as §1

T7 sequence (P08637 17-208 F176V): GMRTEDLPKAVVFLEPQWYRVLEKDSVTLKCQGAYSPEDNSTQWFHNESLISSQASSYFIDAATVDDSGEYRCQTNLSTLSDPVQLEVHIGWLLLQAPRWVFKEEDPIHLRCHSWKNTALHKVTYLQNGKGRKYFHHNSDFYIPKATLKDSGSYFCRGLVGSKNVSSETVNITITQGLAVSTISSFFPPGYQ
T6 sequence (P12314 16-288 limits assumed): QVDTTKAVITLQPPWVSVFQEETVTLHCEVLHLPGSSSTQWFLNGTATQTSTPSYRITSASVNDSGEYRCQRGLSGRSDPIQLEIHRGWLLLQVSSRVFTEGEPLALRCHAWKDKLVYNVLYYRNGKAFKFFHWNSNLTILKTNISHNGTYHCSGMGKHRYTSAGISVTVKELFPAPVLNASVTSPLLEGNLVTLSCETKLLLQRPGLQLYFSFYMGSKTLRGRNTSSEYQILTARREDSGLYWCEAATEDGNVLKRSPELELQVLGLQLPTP
T5 sequence (P08637 17-208): as the sequence (P08637 17-208 F176V) above, with V160F counted along it

Fold vs WT IgG1 [1] [fold]	Fold vs WT IgG1 [2] [fold]	Fold vs WT IgG1 [3] [fold]	Kd [3] [nM]	Fold vs WT IgG1 [4] [fold]	Kd [4] [nM]	Fold vs WT IgG1 [5] [fold]	Kd [5] [nM]	Fold vs WT IgG1 [6] [fold]	Kd [6] [nM]	Kd [7] [nM]	Kd [1] [nM]	Kd [2] [nM]	EC50 (read off the curve) [8] [mg/L]	EC50 (read off the curve) [9] [mg/L]	EC50 (read off the curve) [10] [mg/L]	EC50 (read off the curve) [11] [mg/L]	binding result [6]	EC50 (read off the curve) [12] [mg/L]	Binder
1	1	1	646	1	859	1	0.329	1	191	1470	–	–	–	–	–	–	–	–	anti-CD19 antibody HuAM4G7, WT (native) IgG1 (antibody, also called WT IgG1; anti-CD19-IgG1; copies: 2 + 2) heavy: not shown light: DIVMTQSPATLSLSPGERATLSCRSSKSLQNVNGNTYLYWFQQKPGQSPQLLIYRMSNLNSGVPDRFSGSGSGTEFTLTISSLEPEDFAVYYCMQHLEYPITFGAGTKLEIKRTVAAPSVFIFPPSDEQLKSGTASVVCLLNNFYPREAKVQWKVDNALQSGNSQESVTEQDSKDSTYSLSSTLTLSKADYEKHKVYACEVTHQGLSSPVTKSFNRGEC
–	–	–	163	–	68.6	–	0.0374	–	–	–	101	28.2	~0.02	~0.03	~0.03	~0.02	–	–	S239D/I332E (antibody, human IgG1, kappa, HuAM4G7 anti-CD19 IgG1 (m1) with these Fc substitutions, EU index; copies: 2 + 2) heavy: not shown light: DIVMTQSPATLSLSPGERATLSCRSSKSLQNVNGNTYLYWFQQKPGQSPQLLIYRMSNLNSGVPDRFSGSGSGTEFTLTISSLEPEDFAVYYCMQHLEYPITFGAGTKLEIKRTVAAPSVFIFPPSDEQLKSGTASVVCLLNNFYPREAKVQWKVDNALQSGNSQESVTEQDSKDSTYSLSSTLTLSKADYEKHKVYACEVTHQGLSSPVTKSFNRGEC
37.2	–	0.941	687	37.5	22.9	0.00347	95	–	–	–	39.4	–	–	–	–	–	no binding	~0.006	anti-CD19 antibody HuAM4G7 IgG1 L235Y/S267E (antibody, Positions in EU numbering; copies: 2 + 2) heavy: not shown light: DIVMTQSPATLSLSPGERATLSCRSSKSLQNVNGNTYLYWFQQKPGQSPQLLIYRMSNLNSGVPDRFSGSGSGTEFTLTISSLEPEDFAVYYCMQHLEYPITFGAGTKLEIKRTVAAPSVFIFPPSDEQLKSGTASVVCLLNNFYPREAKVQWKVDNALQSGNSQESVTEQDSKDSTYSLSSTLTLSKADYEKHKVYACEVTHQGLSSPVTKSFNRGEC
